{"source": "paper PMC5505151", "about": "“A proteomic analysis of LRRK2 binding partners reveals interactions with multiple signaling components of the WNT/PCP pathway” (Molecular Neurodegeneration, 2017)", "molecular_target": "LRRK2 (wild type, transiently overexpressed; tagged construct not told for the experiment) (UniProt Q5S007 1-2527)", "sequence (Q5S007 whole entry)": "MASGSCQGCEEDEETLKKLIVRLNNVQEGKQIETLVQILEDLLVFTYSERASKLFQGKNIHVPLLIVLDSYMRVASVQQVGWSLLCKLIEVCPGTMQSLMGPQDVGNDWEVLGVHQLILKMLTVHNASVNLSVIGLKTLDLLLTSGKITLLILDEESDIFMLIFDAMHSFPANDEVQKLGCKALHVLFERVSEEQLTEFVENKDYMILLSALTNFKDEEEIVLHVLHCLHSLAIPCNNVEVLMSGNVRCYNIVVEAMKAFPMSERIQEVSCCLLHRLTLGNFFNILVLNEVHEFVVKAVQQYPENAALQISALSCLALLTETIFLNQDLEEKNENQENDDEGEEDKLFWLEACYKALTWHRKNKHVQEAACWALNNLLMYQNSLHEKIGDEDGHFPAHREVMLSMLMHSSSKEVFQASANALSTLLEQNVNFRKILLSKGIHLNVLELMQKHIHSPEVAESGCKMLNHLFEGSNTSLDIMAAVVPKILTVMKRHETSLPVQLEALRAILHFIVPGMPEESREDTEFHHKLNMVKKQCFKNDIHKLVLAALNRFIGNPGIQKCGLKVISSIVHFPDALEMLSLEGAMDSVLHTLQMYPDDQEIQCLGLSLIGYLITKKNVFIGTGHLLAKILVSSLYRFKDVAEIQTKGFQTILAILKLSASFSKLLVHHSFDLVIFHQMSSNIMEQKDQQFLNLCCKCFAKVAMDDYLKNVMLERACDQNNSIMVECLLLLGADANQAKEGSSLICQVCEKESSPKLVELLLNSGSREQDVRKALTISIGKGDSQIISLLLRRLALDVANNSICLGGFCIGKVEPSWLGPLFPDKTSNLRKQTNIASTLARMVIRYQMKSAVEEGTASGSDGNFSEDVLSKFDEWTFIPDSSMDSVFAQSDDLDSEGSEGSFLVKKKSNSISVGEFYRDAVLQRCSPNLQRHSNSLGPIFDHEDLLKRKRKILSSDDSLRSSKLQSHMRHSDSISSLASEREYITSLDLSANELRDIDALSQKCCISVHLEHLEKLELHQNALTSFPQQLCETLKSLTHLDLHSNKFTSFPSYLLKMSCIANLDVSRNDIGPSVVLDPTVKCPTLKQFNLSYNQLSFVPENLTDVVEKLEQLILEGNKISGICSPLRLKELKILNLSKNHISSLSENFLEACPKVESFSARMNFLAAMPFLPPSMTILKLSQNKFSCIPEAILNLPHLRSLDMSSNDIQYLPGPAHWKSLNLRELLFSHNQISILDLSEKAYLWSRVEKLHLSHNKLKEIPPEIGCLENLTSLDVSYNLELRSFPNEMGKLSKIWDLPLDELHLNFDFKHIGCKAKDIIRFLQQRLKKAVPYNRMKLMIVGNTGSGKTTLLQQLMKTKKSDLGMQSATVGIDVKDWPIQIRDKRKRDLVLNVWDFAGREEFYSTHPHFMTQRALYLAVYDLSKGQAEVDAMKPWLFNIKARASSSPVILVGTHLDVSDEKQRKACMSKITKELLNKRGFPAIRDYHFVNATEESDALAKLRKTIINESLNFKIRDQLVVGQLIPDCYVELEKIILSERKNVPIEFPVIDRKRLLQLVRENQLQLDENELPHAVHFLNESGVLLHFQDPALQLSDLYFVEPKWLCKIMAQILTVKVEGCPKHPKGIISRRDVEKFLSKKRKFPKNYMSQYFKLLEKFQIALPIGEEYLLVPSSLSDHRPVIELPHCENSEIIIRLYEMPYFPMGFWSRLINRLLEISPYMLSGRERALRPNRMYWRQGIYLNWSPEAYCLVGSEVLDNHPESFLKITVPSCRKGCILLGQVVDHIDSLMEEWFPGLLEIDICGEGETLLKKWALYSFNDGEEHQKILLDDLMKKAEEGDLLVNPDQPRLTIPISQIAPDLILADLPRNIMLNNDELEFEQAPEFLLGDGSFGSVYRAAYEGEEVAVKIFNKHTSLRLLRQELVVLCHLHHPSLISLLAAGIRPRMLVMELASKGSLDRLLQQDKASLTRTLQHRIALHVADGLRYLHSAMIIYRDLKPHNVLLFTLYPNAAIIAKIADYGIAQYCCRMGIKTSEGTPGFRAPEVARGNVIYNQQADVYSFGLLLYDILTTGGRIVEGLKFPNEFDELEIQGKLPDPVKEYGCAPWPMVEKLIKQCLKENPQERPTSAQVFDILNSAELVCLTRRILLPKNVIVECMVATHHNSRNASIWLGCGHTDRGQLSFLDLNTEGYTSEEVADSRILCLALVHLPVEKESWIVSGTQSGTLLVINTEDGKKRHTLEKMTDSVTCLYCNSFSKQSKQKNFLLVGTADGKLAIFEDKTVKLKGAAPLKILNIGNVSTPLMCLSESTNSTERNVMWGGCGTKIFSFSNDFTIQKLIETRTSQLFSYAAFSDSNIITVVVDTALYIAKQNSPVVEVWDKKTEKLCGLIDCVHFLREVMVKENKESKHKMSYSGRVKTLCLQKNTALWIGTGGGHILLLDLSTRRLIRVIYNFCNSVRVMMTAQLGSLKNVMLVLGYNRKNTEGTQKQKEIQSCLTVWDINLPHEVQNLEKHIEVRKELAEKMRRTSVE", "assay": "cell-based or functional assay"}
{"binder": "Prickle1-ECFP (natural protein, UniProt Q3U5C7 1-832, looked up) MPLEMEPKMSKLVFGCQRSSTSDDDSGCALEEYAWVPPGLRPEQIQLYFACLPEEKVPYVNSPGEKHRIKQLLYQLPPHDNEVRYCQSLSEEEKKELQVFSAQRKKEALGRGTIKLLSRAVMHAVCEQCGLQMNGGEVAVFASRAGPGVCWHPSCFVCFTCNELLVDLIYFYQDGKIHCGRHHAELLKPRCSACDEIIFADECTEAEGRHWHMKHFCCLECETVLGGQRYIMKDGRPFCCGCFESLYAEYCETCGEHIGVDHAQMTYDGQHWHATEACFSCAQCKASLLGCPFLPKQGQIYCSKTCSLGEDIHASDSSDSAFQSARSRDSRRSVRMGRSSRSADQCRQSLLLSPALNYKFPGLSGNADDTLSRKLDDVSLASRQGAGFANEEFWKARVEQEASEDPEEWAEHEDYMTQLLLKFGDKNLFQQQSSEVDPRASEHWIPDNMVTNKPEVKPNHQGLASKKYQSDMYWAQSQDGLGDSAYGSHPGPASSRRLQELDLDHGAAGYTHDQSQWYEDSLECLSDLKPEQSIRDSMDSLALSNITGASVDGESKPRPSLYSLQNFEEIEAEDCEKMSNMGTLNSSMLHRSAESLQSLNSGLCPEKILPEEKPAHLPVLRRSKSQSRPQQVKFSDDVIDNGSYDIEIRQPPMSERTRRRAYHFEERGSRPHHHRHRRSRKSRSDNALNLVTERKYSAKDRLRLYTPDNYEKFIQNKSARELQAYMQNANLYSQYAHATSDYALQNPGMNRFLGLCGEDDDSWCSSSTSSSDSEEEGYFLGQPIPQPRPQRFTYYTDDLSSPASALPTPQFTQRTTKSKKKKGHKGKNCIIS", "values": [{"measurement": "TOPFlash (WNT/β-catenin reporter) in HEK293T cells expressing DVL2, LRRK2 and PRICKLE1, fold of control (DVL2 with LRRK2 without PRICKLE1: ~130 fold)", "result": "~80", "unit": "fold"}]}
